We go through two molecules from patent US6645733B1, “Fluorescent intensity method for assaying binding between proteins or peptides” (Ingeneus Corporation, priority 1999, dated 2003).

No end group written: not given here. fluorescein = fluorescein label at the amino-terminal end; Flu = fluorescein

The target in one test is T1, human AT1 receptor (Homo sapiens, UniProt P30556).
T1 construct: purchased NEN Life Science Products Inc., Boston, Mass; host or cells: Chinese hamster ovary (CHO) cells, purified membrane preparation
T1 sequence (P30556 1-359): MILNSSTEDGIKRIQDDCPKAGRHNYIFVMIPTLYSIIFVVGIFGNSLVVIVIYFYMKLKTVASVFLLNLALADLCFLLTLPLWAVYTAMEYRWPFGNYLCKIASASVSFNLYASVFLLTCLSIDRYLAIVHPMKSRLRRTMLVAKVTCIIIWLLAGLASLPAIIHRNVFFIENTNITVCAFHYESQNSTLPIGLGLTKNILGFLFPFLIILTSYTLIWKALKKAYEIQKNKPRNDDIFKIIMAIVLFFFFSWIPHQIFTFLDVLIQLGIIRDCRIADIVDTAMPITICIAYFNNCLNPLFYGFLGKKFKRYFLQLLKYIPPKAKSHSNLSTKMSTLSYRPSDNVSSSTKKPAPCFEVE
The experiment in a line: Flu-AII:AT1 fluorescent intensity quenching binding assay. The settings on record: 0.005, 0.01, 0.02 and 0.05 units AT1 receptor, 10 nM probe.

In test [1] the target is T2, Cloned human angiotensin II AT1 receptor (purified membrane preparation derived from CHO cells) (human, UniProt P30556 1-359).
T2 construct: whole, on cells; Used as a membrane preparation, not intact cells; also called human AT1 receptor
T2 sequence (looked up): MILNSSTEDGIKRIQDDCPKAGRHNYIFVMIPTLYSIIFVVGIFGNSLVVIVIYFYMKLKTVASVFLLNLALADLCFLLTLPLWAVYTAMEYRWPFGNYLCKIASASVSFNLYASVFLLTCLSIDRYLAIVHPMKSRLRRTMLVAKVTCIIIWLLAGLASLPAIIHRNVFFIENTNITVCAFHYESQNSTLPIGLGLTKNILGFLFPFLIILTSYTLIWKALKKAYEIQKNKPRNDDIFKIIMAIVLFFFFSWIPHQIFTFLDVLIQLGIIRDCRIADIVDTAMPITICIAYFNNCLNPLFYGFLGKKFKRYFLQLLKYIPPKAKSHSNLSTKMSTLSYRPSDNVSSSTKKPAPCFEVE
Nature of the test: fluorescence intensity quenching assay in solution.

For “Flu-Asp-Arg-Val-Tyr-Ile (fluorescein-DRVYI) [Flu-AII(1-5)]”, the “binding to AT1 receptor (fluorescent intensity versus probe alone)” value with human AT1 receptor is given as “did not bind”.

B1: Mutant angiotensin II fragment containing the first five amino acid residues of wildtype AII, labeled with fluorescein at its amino-terminus [Flu-AII(1-5)] (peptide)
peptide: Flu-DRVYI
notes: Synthesized by AnaSpec; also called mutant Flu-AII(1-5); mutant Flu-AII
Consider B1, for which, in test [1], the binding result is listed as “no binding”.
